Here are results for one molecule from patent US11939397B2, “ENTPD2 antibodies, combination therapies, and methods of using the antibodies and combination therapies” (Novartis AG, priority 2018, dated 2024).

The test system of one assay is B16F10 tumor. As to the kind of experiment: Syngeneic B16F10 tumor model, tumor growth and tumor T cell influx. Format: in vivo, C57BL/6 mice. As for the experimental part: B16F10 model was established in female C57BL/6 mice by subcutaneous injection of 0.5×10^6 cells into the right flank of each mouse. On day 7 once tumors reached approximately 30 mm^3, mice were randomized according to tumor volume into treatment groups (n=10 per group). Mice received treatment of either anti-mouse ENTPD2 mAb13 at a final dose 15 mg/kg, anti-PD-1 Ab (clone RMP1-14 Bio X Cell, West Lebanon, NH) i.p. at a final dose of 10 mg/kg or the combination of both treatments on days 1, 5, and 8. All doses were adjusted to individual mouse body weights.
In order to understand the impact of treatments on the tumor microenvironment, mice were euthanized on day 8 and tumors were dissociated in HyClone RPMI1640 media (GE Healthcare, Pittsburgh, PA) using gentleMacs C-tubes (Miltenyi Biotec, Auburn, CA) on the gentleMacs Octo Dissociator (Miltenyi Biotec, Auburn, CA). Approximately 2×10^6 dissociated tumor cells were blocked with rat anti-mouse CD16/CD32 Ab (Biolegend, San Diego, CA) to reduce non-specific FcyRIII/II binding and subsequently stained with the following cocktail of Abs: rat anti-mouse CD45-BUV395 (clone 30-F11) (BD Biosciences, San Jose, CA), rat anti-mouse CD8a-BUV737 (clone 53-6.7) (BD Biosciences, San Jose, CA), rat anti-mouse CD4-BV510 (clone RM4-5) (BD Bioscience, San Jose CA), anti-mouse CD69-PercPCy5.5 (clone H1-2F3) (Biolegend, San Diego, CA) and rat anti-mouse CD25-eFluor450 (clone eBio3C7) (eBioscience, San Diego, CA) at the manufacturers' recommended dilutions. All incubations and washes were performed in FACS Buffer composed of 1× HyClone Phosphate Buffered Saline (GE Healthcare, Pittsburgh, PA), 1% HyClone Fetal Bovine Serum (GE Healthcare, Pittsburgh, PA), 2 mM EDTA (ThermoFisher, Waltham MA). After staining with the cell surface antigen antibody cocktail, dissociated tumor cells were washed in FACS buffer, fixed and permeabilized using the eBioscience Foxp3/Transcription Factor Staining Buffer Kit (ThermoFisher, Waltham MA) to allow for intracellular staining with the mouse anti-mouse FOXP3-eFluor660 (clone 150D/E4) (eBioscience, San Diego, CA).

The target in the next assay is T1, mouse ENTPD2 (Mus musculus, UniProt O55026).
T1 construct: expressed in transfected cells
T1 sequence (O55026 1-495): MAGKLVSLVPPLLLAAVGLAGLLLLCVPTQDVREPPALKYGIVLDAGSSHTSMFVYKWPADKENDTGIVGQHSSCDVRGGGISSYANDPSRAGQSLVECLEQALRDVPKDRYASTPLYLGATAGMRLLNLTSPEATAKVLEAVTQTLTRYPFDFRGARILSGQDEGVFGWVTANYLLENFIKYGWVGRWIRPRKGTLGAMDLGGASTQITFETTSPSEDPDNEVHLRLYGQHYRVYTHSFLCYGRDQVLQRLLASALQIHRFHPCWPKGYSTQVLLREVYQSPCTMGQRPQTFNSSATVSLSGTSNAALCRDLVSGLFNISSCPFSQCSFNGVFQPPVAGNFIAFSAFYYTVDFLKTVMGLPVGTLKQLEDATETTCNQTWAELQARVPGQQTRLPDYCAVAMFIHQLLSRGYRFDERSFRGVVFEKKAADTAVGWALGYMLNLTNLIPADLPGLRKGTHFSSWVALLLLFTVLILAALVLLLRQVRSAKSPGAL
As to the kind of experiment: Mouse ENTPD2 NIH/3T3 cell-based functional assay. The source says: Biochemical and cell-based functional assays were developed in-house to understand functional impact of anti-ENTPD2 Abs against purified extracellular domain of ENTPD2 (residues 29-462), as well as against the fully intact protein in the context of the native cell-based conformation. ENTPD2 hydrolyzes ATP to ADP, which can subsequently be detected using the HTRF Transcreener ADP2 TR-FRET Red Assay (BellBrook Labs, Madison, WI) where ENTPD2-produced ADP would compete with the ADP Tracer for binding to the anti-ADP-Tb antibody. The resulting signal is inversely proportional to the concentration of ADP in the sample.
To establish cell-based functional assays, human/cyno/mouse ENTPD2-engineered NIH/3T3 cells or RKO (ATCC, Manassa VA) colorectal cancer cells with endogenous ENTPD2 expression were plated overnight at 150, 200 and 250 cells per well for NIH/3T3 mouse, cyno and human ENTPD2 lines, respectively, or 1000 cells per well for RKO in 384-well tissue culture plate, in 30 μl per well (Perkin Elmer, Waltham, MA). […] ADP production was detected with the Transcreener ADP2 TR-FRET Red Assay (BellBrook Labs, Madison, WI) with a final concentration of 4 nM ADP2 antibody and 13.4 nM of ADP Tracer in wells (4× solution was prepared and 5 μL of “Detection Reagent Mix” was added to the quenched conditioned media). […]

Where [1] appears, read: mAb13 and anti-PD-1 Ab combination, day 8.

B1: mAb13: anti-mouse ENTPD2 monoclonal antibody, VH SEQ ID NO: 191, VL SEQ ID NO: 202 (antibody, V domains shown)
VH: QVQLVQSGAELKQPGQSVKISCKASGYTFTHYGMNWVKQAPGQGLKWMGWINTDTGNPTYADDFKGRFVFSLDTSVSTAYLQISNLKNEDTATYYCVRYGTLYSGYGFFFDSWGQGTLVTVSS
VL: DIMMTQSPSSLSVSAGEKATITCKSSQSLFNSNTNKNYLNWYLQKPGQSPKLLFYYASTRHTGVPDRFIGSGSGTDFTLTITSVQDEDLADYYCQQWYSYPWTFGPGTKLEIK
As to B1, in the assay on B16F10 tumor (mAb13 15 mg/kg in combination with anti-PD-1 Ab 10 mg/kg, days 1, 5, 8), the “tumor growth relative to No Treatment control, combination” value is on record as “significant reduction in tumor growth”. Moreover, the “anti-tumor efficacy, treatment alone” value in the assay on B16F10 tumor (mAb13 15 mg/kg or anti-PD-1 Ab 10 mg/kg i.p. alone, days 1, 5, 8) is “No significant anti-tumor efficacy”. Moreover, in the assay with B16F10 tumor (setting [1]), the “activated CD4 T-helper cells (CD45+ CD8− CD4+ FOXP3− CD69+ CD25+) in tumor, increase vs No Treatment” value was determined as 7.0 fold and the “activated CD8 T cells (CD45+ CD4− CD8+ CD69+ CD25+) in tumor, change vs No Treatment” value is 5.8 fold. For the same molecule, the “% Inhibition at 100 nM (±Std Err)” value with mouse ENTPD2 (100 nM antibody, mouse ENTPD2 NIH/3T3 cells) amounted to 44 ± 7.3%. Moreover, the “maximum target inhibition (mouse ENTPD2 inhibition)” value with mouse ENTPD2 (NIH3T3-mouse ENTPD2 engineered cell line) was 44%.
